According to patent US20230277632A1, “MODIFIED PlySs2 LYSINS AND ANTIBIOTIC COMBINATIONS FOR USE AGAINST GRAM-POSITIVE BACTERIA” (ContraFect Corporation, priority 2020, published 2023):
Values joined by “and” are separate entries in the source; they are usually repeats but may differ in a detail not shown here. Equal entries are not always repeated. Where two headings read alike, the source gives them in different places.

Columns and labels:
S. aureus isolates [1] = assay: In vivo efficacy of vancomycin in combination with pp296, neutropenic murine thigh infection model; details: 24 h
Experimental: (§1) Study animals: Specific pathogen-free female ICR mice (average body weight 23 grams) were provided food and water ad libitum and maintained and used in accordance with National Research Council recommendations. Animals were allowed a 48-hour post-delivery acclimation period before every experiment. Mice were rendered transiently neutropenic by injection of cyclophosphamide via intraperitoneal (IP) route at a dose of 150 mg/kg of body weight at four days before bacterial inoculation and 100 mg/kg of body weight at one day before bacterial inoculation.
Neutropenic Thigh Infection Model: Two transfers of the bacterial isolates were performed onto trypticase soy agar plates with 5% sheep blood and placed into an incubator at 37° C. for approximately 24 hours. After an 18-24 hour incubation of the second transfer, a suspension of approximately 10^7 CFU/mL was made for inoculation. Final bacterial inoculum concentrations were confirmed by serial dilution and plating techniques. Thigh infection with the test isolate was produced by intramuscular injection of 0.1 mL of the bacterial inoculum into each thigh of the mice. Antimicrobial therapy was initiated 2 hours after bacterial inoculation, as detailed below. […]
(§2) Untreated control mice (n=3) were sacrificed just prior to antibiotic administration and 24 hours after bacterial inoculation. Animals sacrificed prior to antibiotic initiation served as 0-hour control animals, representing initial bacterial burden. […] Treatment mice (n=3/group) were sacrificed at the end of the 24 hour treatment period. After sacrifice, both thighs for each mouse were homogenized in normal saline. Serial dilutions were plated on Trypticase soy agar with 5% sheep blood and incubated for 18 to 20 hours at 37.0 to determine the CFU. Efficacy was calculated as the change in bacterial density obtained in treated mice after 24 hours compared with the numbers in the 0-hour control animals. Bacterial density represents the average CFU determined from 3 mice, each contributing 2 thighs.

S. aureus isolates [2] = assay: In vivo efficacy of daptomycin in combination with pp296, neutropenic murine thigh infection model; details: 24 h
Experimental: as §1
Neutropenic Thigh Infection Model: Two transfers of the bacterial isolates were performed onto trypticase soy agar plates with 5% sheep blood and placed into an incubator at 37° C. for approximately 24 hours. After an 18-24 hour incubation of the second transfer, a suspension of approximately 10^7 CFU/mL was made for inoculation. Final bacterial inoculum concentrations were confirmed by serial dilution and plating techniques. Thigh infection with the test isolate was produced by intramuscular injection of 0.1 mL of the bacterial inoculum into each thigh of the mice. Antimicrobial therapy was initiated 2 hours after bacterial inoculation, as detailed below.
as §2
For the 4 S. aureus isolates HPV107, CAIRD426, JMI227, and NRS123, the following sub-therapeutic daptomycin dosage regimen was adopted: 0.76 mg/kg at 0 hrs, 0.4 mg/kg at 4 hrs, 0.24 mg/kg at 10 hrs, and 0.12 mg/kg at 17 hrs.

S. aureus = assay: pp296 dose fractionation study, neutropenic murine thigh infection model; type: in vivo
Experimental: Each of the pp296 TDDs was fractionated into three regimens, i.e., one-third of the entire dose was administered via IV three times (q8h); one-half of the entire does was administered via IV two times (q12h), or the entire dose was administered via IV once daily over a 24-hour period, for a total of three groups per each TDD.
Untreated control mice (n=3/group) were sacrificed just prior to antibiotic administration, as well as 24 hours later. Animals sacrificed prior to antibiotic administration served as 0-hour control animals, representing initial bacterial burden. The 24-hour control animals received sterile normal saline in the same volume and schedule as the most frequent active drug regimen. […] After the 24-hour treatment period, all animals were euthanized and thighs were cultured quantitatively as described above. The change in bacterial density was calculated for each of the dosing regimen. Comparisons were made between the different regimens of the same total daily dose on bacterial burdens at 24 hours using one-way Analysis of Variance (ANOVA) test followed by Tukey's test where the P value was 0.05.

[3] = tested on: 5 MSSA and 5 MRSA isolates; details: cited from earlier work

B1: pp296: modified PlySs2 lysin, SEQ ID NO: 6: L92W, V104S, V128T, Y137S, Y164K, N184D, S198Q (protein)
chain: MTTVNEALNNVRAQVGSGVSVGNGECYALASWYERMISPDATVGLGAGVGWVSGAIGDTISAKNIGSSYNWQANGWTVSTSGPFKAGQIVTWGATPGNPYGHVSIVEAVDGDRLTILEQNYGGKRYPTRNYYSAASSRQQVVHYITPPGTVAQSAPNLAGSRSKRETGTMTVTVDALNVRRAPDTSGEIVAVYKRGEQFDYDTAIIDVNGYAWVSYIGGSGKRNYVATGATKDGKRFGNAWGTFK
Replicate Log10 CFU/thigh data (S. aureus isolates [1]; ATCC2921, pp296 50 mg/kg alone, 50 mg/kg): 8.15 Log10 CFU/thigh (2×) and 8.58 Log10 CFU/thigh and 7.86 Log10 CFU/thigh and 6.81 Log10 CFU/thigh and 8.00 Log10 CFU/thigh | Replicate Log10 CFU/thigh data (S. aureus isolates [1]; CAIRD426, pp296 50 mg/kg alone (VAN 1.5 mg/kg study)): 5.41 Log10 CFU/thigh and 5.80 Log10 CFU/thigh and 7.92 Log10 CFU/thigh and 8.33 Log10 CFU/thigh and 4.90 Log10 CFU/thigh and 6.18 Log10 CFU/thigh | Replicate Log10 CFU/thigh data (S. aureus isolates [1]; CAIRD426, pp296 50 mg/kg alone, Run #1, 50 mg/kg): 6.04 Log10 CFU/thigh and 4.62 Log10 CFU/thigh and 5.46 Log10 CFU/thigh and 4.94 Log10 CFU/thigh and 6.53 Log10 CFU/thigh and 6.00 Log10 CFU/thigh | Replicate Log10 CFU/thigh data (S. aureus isolates [1]; CAIRD426, pp296 50 mg/kg alone, Run #2, 50 mg/kg): 8.14 Log10 CFU/thigh and 7.97 Log10 CFU/thigh and 4.83 Log10 CFU/thigh and 4.79 Log10 CFU/thigh and 5.84 Log10 CFU/thigh and 6.07 Log10 CFU/thigh | Replicate Log10 CFU/thigh data (S. aureus isolates [1]; HPV107, pp296 50 mg/kg alone (VAN 1.5 mg/kg study)): 8.08 Log10 CFU/thigh and 8.00 Log10 CFU/thigh and 7.05 Log10 CFU/thigh and 7.21 Log10 CFU/thigh and 4.64 Log10 CFU/thigh and 6.57 Log10 CFU/thigh | Replicate Log10 CFU/thigh data (S. aureus isolates [1]; HPV107, pp296 50 mg/kg alone, Run #1, 50 mg/kg): 5.08 Log10 CFU/thigh and 4.96 Log10 CFU/thigh and 5.36 Log10 CFU/thigh and 6.45 Log10 CFU/thigh and 6.14 Log10 CFU/thigh and 6.78 Log10 CFU/thigh | Replicate Log10 CFU/thigh data (S. aureus isolates [1]; HPV107, pp296 50 mg/kg alone, Run #2, 50 mg/kg): 7.35 Log10 CFU/thigh and 8.03 Log10 CFU/thigh (2×) and 6.53 Log10 CFU/thigh and 7.04 Log10 CFU/thigh and 6.30 Log10 CFU/thigh | Replicate Log10 CFU/thigh data (S. aureus isolates [1]; JMI227, pp296 50 mg/kg alone, 50 mg/kg): 5.01 Log10 CFU/thigh and 6.67 Log10 CFU/thigh and 7.71 Log10 CFU/thigh and 8.05 Log10 CFU/thigh and 4.72 Log10 CFU/thigh and 7.34 Log10 CFU/thigh | Replicate Log10 CFU/thigh data (S. aureus isolates [1]; JMI4789, pp296 50 mg/kg alone, 50 mg/kg): 5.02 Log10 CFU/thigh and 5.19 Log10 CFU/thigh and 7.69 Log10 CFU/thigh and 8.08 Log10 CFU/thigh and 5.11 Log10 CFU/thigh and 6.15 Log10 CFU/thigh | Replicate Log10 CFU/thigh data (S. aureus isolates [1]; NRS100, pp296 50 mg/kg alone (VAN 1.5 mg/kg study)): 4.79 Log10 CFU/thigh and 5.29 Log10 CFU/thigh and 4.72 Log10 CFU/thigh and 4.90 Log10 CFU/thigh (2×) and 5.73 Log10 CFU/thigh | Replicate Log10 CFU/thigh data (S. aureus isolates [1]; NRS100, pp296 50 mg/kg alone, Run #1, 50 mg/kg): 4.75 Log10 CFU/thigh and 4.81 Log10 CFU/thigh and 4.78 Log10 CFU/thigh and 4.83 Log10 CFU/thigh and 4.48 Log10 CFU/thigh and 4.70 Log10 CFU/thigh | Replicate Log10 CFU/thigh data (S. aureus isolates [1]; NRS100, pp296 50 mg/kg alone, Run #2, 50 mg/kg): 4.62 Log10 CFU/thigh and 4.73 Log10 CFU/thigh and 4.66 Log10 CFU/thigh and 4.41 Log10 CFU/thigh and 5.94 Log10 CFU/thigh and 6.34 Log10 CFU/thigh | Replicate Log10 CFU/thigh data (S. aureus isolates [1]; NRS123, pp296 50 mg/kg alone, 50 mg/kg): 6.53 Log10 CFU/thigh and 8.01 Log10 CFU/thigh and 8.08 Log10 CFU/thigh and 7.48 Log10 CFU/thigh and 8.41 Log10 CFU/thigh and 8.38 Log10 CFU/thigh | Replicate Log10 CFU/thigh data (S. aureus isolates [1]; NRS217, pp296 50 mg/kg alone (VAN 1.5 mg/kg study)): 7.46 Log10 CFU/thigh and 7.45 Log10 CFU/thigh and 4.60 Log10 CFU/thigh and 4.79 Log10 CFU/thigh and 7.49 Log10 CFU/thigh and 6.72 Log10 CFU/thigh | Replicate Log10 CFU/thigh data (S. aureus isolates [1]; NRS217, pp296 50 mg/kg alone, Run #1, 50 mg/kg): 4.75 Log10 CFU/thigh and 6.79 Log10 CFU/thigh and 5.06 Log10 CFU/thigh and 4.93 Log10 CFU/thigh and 5.72 Log10 CFU/thigh and 5.76 Log10 CFU/thigh | Replicate Log10 CFU/thigh data (S. aureus isolates [1]; NRS217, pp296 50 mg/kg alone, Run #2, 50 mg/kg): 5.35 Log10 CFU/thigh and 5.98 Log10 CFU/thigh and 6.08 Log10 CFU/thigh and 5.42 Log10 CFU/thigh and 4.32 Log10 CFU/thigh and 6.26 Log10 CFU/thigh | Replicate Log10 CFU/thigh data (S. aureus isolates [1]; isolate CAIRD426, pp296 50 mg/kg alone, VAN 5 mg/kg study): 8.95 Log10 CFU/thigh and 7.96 Log10 CFU/thigh and 7.74 Log10 CFU/thigh and 8.34 Log10 CFU/thigh | mean bacterial density vs starting inoculum (S. aureus isolates [1]; pp296 0.5 mg/kg IV + vancomycin 1.5 mg/kg SC, 4 isolates): 0.92±1.24 log10 CFU/thigh | mean bacterial reduction vs starting inoculum (S. aureus isolates [1]; pp296 0.5 mg/kg IV + vancomycin 3 mg/kg q12h SC, 8 isolates): −0.26±1.10 log10 CFU/thigh | mean bacterial reduction vs starting inoculum (S. aureus isolates [1]; pp296 0.5 mg/kg IV + vancomycin 5 mg/kg SC, 4 isolates): −0.59±0.79 log10 CFU/thigh | mean bacterial density vs starting inoculum (S. aureus isolates [1]; pp296 50 mg/kg IV + vancomycin 1.5 mg/kg SC, 4 isolates): −0.61±0.82 log10 CFU/thigh | mean bacterial reduction vs starting inoculum (S. aureus isolates [1]; pp296 50 mg/kg IV + vancomycin 3 mg/kg q12h SC, 8 isolates): −1.01±0.41 log10 CFU/thigh | mean bacterial reduction vs starting inoculum (S. aureus isolates [1]; pp296 50 mg/kg IV + vancomycin 5 mg/kg SC, 4 isolates): −0.85±0.54 log10 CFU/thigh | average growth vs starting inoculum (S. aureus isolates [1]; pp296 50 mg/kg alone, 4 isolates (VAN 1.5 mg/kg study)): 0.75±1.24 log10 CFU/thigh | average growth vs starting inoculum (S. aureus isolates [1]; pp296 50 mg/kg alone, 4 isolates (VAN 5 mg/kg study)): 1.44±1.43 log10 CFU/thigh | average growth vs starting inoculum (S. aureus isolates [1]; pp296 50 mg/kg q24h IV alone, 8 isolates (VAN 3 mg/kg study)): 0.37±1.27 log10 CFU/thigh | mean bacterial density vs starting inoculum (S. aureus isolates [2]; pp296 0.5 mg/kg IV + sub-therapeutic daptomycin): 0.80±1.19 log10 CFU/thigh | mean bacterial density vs starting inoculum (S. aureus isolates [2]; pp296 50 mg/kg IV + sub-therapeutic daptomycin): −0.72±0.59 log10 CFU/thigh | average growth vs starting inoculum (S. aureus isolates [2]; pp296 50 mg/kg alone, 8 isolates (daptomycin study)): 1.36±1.35 log10 CFU/thigh | efficacy of dose-fractionation (q12h v. q8h) compared with q24h (S. aureus; pp296 5 or 50 mg/kg/day IV with vancomycin or daptomycin): does not appear to provide enhanced efficacy | driver of efficacy (PK/PD index) (S. aureus; pp296 with vancomycin or daptomycin): AUC related | FIC index ([3]; with daptomycin): ~0.5 | FIC index ([3]; with vancomycin): ~0.5
